From the RNAGym collection of RNA variant scans (doi:10.1073/pnas.2313332121)

B1: TPR t1 (parent)
chain: GACCAAUCUGCCCUCAGAGCUCGAGAACAUCUUCGGAUGCAGAGGAGGCAGGCUUCGGUGGCGCGAUAGCGCCAACGUCCUCAACCUCCAAUGCAUCCCACCACAUGAUGAUGCCUGAAGAGCCUUGGUUUUUUG

Variants of: B1
Assay: polymerase ribozyme fitness, log enrichment relative to wild type (log ratio); higher = more active; in vitro selection for triplet polymerase activity
Summary of the method: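 In triplicate, a single round of in vitro selection was run on each mutant library, PCR-built and transcribed, covering one subunit of a heterodimeric triplet polymerase ribozyme. Frozen incubation at −7 °C followed annealing with a biotinylated primer, partner subunit and triplets, and extended constructs were then gel-excised, streptavidin-captured and taken through RT-PCR. Fitness is the logarithm of genotype enrichment over wild-type enrichment, from inverse-variance-weighted replicate averages of Illumina-sequenced inputs and outputs. […] only genotypes with ≥10 input reads and ≥1 read per output were kept.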

Row | Variant | polymerase ribozyme fitness (log ratio)
1 | C28A G60A C97U U112A | -2.26
2 | C11G C53G C70U U96G A105C U112G | -7.25
3 | C12A A16G U81C G120C | 0.152
4 | C40G C49G G51A C76U | -4.64
5 | U87G C99U | -3.22
6 | A2U C70U C88A | -3.44
7 | G39A U116A U129C | -3.92
8 | U33G A118G | -5.59
9 | C72U A84C | 0.0877
10 | C49A G63U C123A | -0.941
11 | G10U C40G G44C A111C | -4.09
12 | G10C A24G A46C C86G | -3.81
13 | G44U U55G G61C A119U | -1.87
14 | C8G A50U U54C G69U U106A G117A | 0.535
15 | A46U C79U A105G | -3.11
16 | G69A C99U | -5.78
17 | G36A G61A | -0.395
18 | U21A A43U C72U U129A | -3.56
19 | U78A G113A | -1.22
20 | C56U U109A | -5.25
21 | A29U C40A U109C U130G | -6.92
22 | C62U U130A | -0.419
23 | G77C C89U G110C G135A | -4.53
24 | A29U G45U C73U A95G U131A | -4.04

Row | Variant | polymerase ribozyme fitness (log ratio)
25 | C12U G47U C85G A111C | -2.51
26 | G117A U125G | -1.64
27 | A43G G63U C115U | -4.05
28 | C8A U9A A50U C80U A84C | -2.54
29 | U109C C115A | -3.11
30 | G42C A91G G113U | -3.17
31 | C15G C73G C88U U116G | -3.52
32 | G60C C70A U78A C85G C98U G117C | -6.56
33 | C53U C101G U130A | -2.65
34 | G61C A105U | -3.67
35 | G48U C101A U116G U130A | -4.7
36 | C13U G42U C56U C114G C123A | -1.36
37 | C40U G61C C72U C88A | -1.95
38 | U7C A37G G57A C62U | -5.38
39 | C4G G52A C72U A91U A119U | -4.02
40 | G44C A111G | -0.351
41 | U78A G120U | -0.295
42 | U7A A16C G63A A121U | -0.146
43 | U9A C31U G44U G52U G61U A111U | -6.18
44 | U32C G52U U81G | -4.15
45 | U9C C20G C101U G113U | -0.203
46 | U33G C97A | -5.28
47 | C8U C85A A91U | -1.64
48 | C8U A43U G58A C79U G113C A118G | -3.06

Row | Variant | polymerase ribozyme fitness (log ratio)
49 | C20U G48U A91C C94G | -4.07
50 | C20A C40A C76G C124A | -2.76
51 | G36A G63A | -1.78
52 | C62U C73U U112G | 0.712
53 | A5C A50C A74U U96G | -3.17
54 | C40U G69C | -1.61
55 | G51U U54A C89U U129C | -2.82
56 | C12U A26G C56U C72U G117A U125G | -2.09
57 | C104A U130A | -2.46
58 | U38A C102U A111G U112A U126G U129C | -6.23
59 | G60A U125G | -0.67
60 | C28U C40A G71U U112C U126A | -3.58
61 | C49A G61C C80G C104A G117U | -8.34
62 | C40G A50U G120C | -0.881
63 | C12A A43C G61U | -0.92
64 | C15U G39U G42A A84U | -4.16
65 | A43C G60U U133G | -2
66 | C49G U54A | 0.0212
67 | C56U C62U | -0.378
68 | G60A C114G U132G | -4.75
69 | A6C G71C C82A U112A A118U | -0.912
70 | G19A U112G | -3.87
71 | U9C A90C | -0.197
72 | C8U G47C C53G U109G | -6.29

Row | Variant | polymerase ribozyme fitness (log ratio)
73 | C11G G107A | -4.44
74 | U55G C56G A68G | -5.14
75 | G47A C62U | -1.85
76 | C28A G45A C53U G61A G110C | -1.65
77 | G42A C72G G93U | -3.39
78 | C20U C62A G93A U129A | -4.93
79 | C12U C20A C56A U116G | -4.71
80 | C13U C89G A90G G110C | -6.32
81 | A27C G57U C124G | -1.48
82 | G45A C56U A90U | -1.57
83 | C11A G42C A118G | -3.71
84 | A5U C64U C85G C86U U109A C124G U133G | -6.39
85 | A46G G58A A83C G107U A121C | -4.18
86 | C11U U92C G127A | -3.76
87 | U55C A111U G117A | -6.33
88 | G47A A50U U81A | -0.591
89 | C11G G19C | -2.06
90 | A43U U92C U112G | -2.71
91 | C8A G63U A119U | -1.39
92 | G10A U55A G60C G122A | -0.167
93 | C4A U78A G93C C115A | -2.87
94 | G42U G44U C53U G69U C79A G127U | -3.88
95 | G17C A18C A43U C89U | -2.92
96 | G44U C88A U133G | -1.73

Row | Variant | polymerase ribozyme fitness (log ratio)
97 | C13U C53U U92C C123G U131A | -0.0541
98 | C22G A43U C72G U106A C115A | -1.97
99 | C20A G47A | -3.54
100 | A29U C94U A121U | -0.384
101 | C62A C79U C82A A111C | -0.967
102 | G47U C53U | -1.6
103 | G47U C53A | -1.95
104 | A46U U59C C101U A121U | 0.445
105 | A29C G69U G77U | -2.24
106 | C62U C94U C98G G110U | -6.52
107 | C13G G60U | -2.05
108 | C11A G45U G63U | -3.75
109 | G19A G110A | -2.58
110 | G93A G128U | -1.66
111 | A18U C123U | -1.12
112 | C88U U92A | -2.45
113 | A50C G63A U125G G127U | -2.41
114 | C13G C99U | -4.01
115 | C3U G57C C62U C97U A108G C123U C124G | -1.18
116 | A84U U92G | -3.25
117 | U9C G45C G48A A90C | -0.81
118 | A2U C8G G36U G45A C102U G120A G127C | -4.41
119 | A2C C4U G36U C104U | -2.28
120 | U9A C11U A66C G117U | -5.04

Row | Variant | polymerase ribozyme fitness (log ratio)
121 | C8G G63U A75U A83G C85A G122A | -0.256
122 | G71U C94G G113C U126G | -6.21
123 | C20U A83C | -1.52
124 | C40U G44U U78A C89A A111C G117A G135C | -3.17
125 | C8A U32C C49A | 0.0595
126 | C8A G45A A90U G117A | -1.14
127 | C13U G42U A90U A95U | -1.89
128 | G57A A66U C115G | -4.64
129 | G39U C64U A84C | -0.386
130 | C82G C98G U109A C123G | -7.59
131 | G39A C70G G120C G122U | -3.09
132 | C114G G117A G135U | -6.72
133 | C72A U87C C88G U116G | -3.6
134 | C12A G17A G61U | -4.75
135 | C20U C62U C94U | -2.47
136 | G61A U130G | -0.92
137 | U32C C124G G135U | 0.917
138 | U109A U116G | -5.73
139 | G47U C64A A121U | -4.82
140 | G42A C70U G117A | -4.31
141 | U21G A46G G48U A100C C102A | -5.54
142 | G10A G17A A37G G42U C53A C64U A100U | -5.75
143 | G44U G47C C53U C72G | -4.81
144 | U78A C85U U112A | 0.505

Row | Variant | polymerase ribozyme fitness (log ratio)
145 | C13A U87A G113A | -2.16
146 | C12U U38C G71U C101G | -2.11
147 | G69U C104U C115U | 1.66
148 | U14C C15U G39A C72G G117A | -1.31
149 | A29U C114U G120C C123U G128C | -4.45
150 | G60A C88G G120C | -0.823
151 | A84C G120A | 0.816
152 | G10A C22G G61U A95U | -3.63
153 | A2C C11U | -2.65
154 | G93C G135A | -1.71
155 | C3G C11G G19U G120A | -3.18
156 | A75U U81G | -3.97
157 | G69A G77A | -2.61
158 | G51A A100U | -4.16
159 | G10U C15A G61U A75C G117A | -3.07
160 | C15U A100C | -2.86
161 | C34U G44A G69A | -7.2
162 | C4A C40U C53U G57U A83C G113U | -5.8
163 | C98U G120A | -0.67
164 | G10U G113C U125A | -3.42
165 | C40A U54G C62U | -1.83
166 | C85G U112A | 0.357
167 | A6U C8U C70A C101G | -3.42
